This note sets out measurements from patent US20070207086A1 (published 2007).

Assay [1] addresses T1, Recombinant purified HER2 receptor composed of the ectodomain of HER2 fused to the Fc of human IgG (human, UniProt P04626 23-652, limits assumed).
T1 construct: extracellular domain; Provided by Dr. Che Law, Xcyte Therapeutics; amine-coupled to the Biacore chip (3500 RU); also called immobilized HER2; p185; not shown: Fc of human IgG
The assay can be described thus: Biacore SPR, HER2 ectodomain-Fc immobilized, peptide as analyte. The protocol: (§1) Binding experiments were performed with the surface plasmon resonance based biosensor instrument Biacore 3000 (Biacore AB, Uppsala, Sweden) at 25° C. Recombinant purified HER2 receptor composed of the ectodomain of HER2 fused to the Fc of human IgG was provided by Dr. Che Law, Xcyte Therapeutics, Seattle, Wash. Immobilization of HER2 in the sensor surface was performed following the standard amine coupling procedure according to manufacturer's instructions. Briefly, 35 μL of a solution containing 0.2M N-ethyl-N-(dimethylaminopropyl) carbodiimide (EDC) and 0.05 M N-hydroxysuccinimide (NHS) were injected at a flow rate of 5 μL/min to activate carboxyl groups on the sensor chip surface. HER2 (40 ng/mL in 10 mM NaOAc buffer, pH 5.0) was flowed over the chip surface at a flow rate of 20 μL/min until the desired level bound protein was reached. Unreacted protein washed out and unreacted activated groups were blocked by the injection of 35 μL of 1 M ethanolamine at 5 μL/min. […] A reference surface was generated simultaneously under the same conditions but without HER2 injection and used as a blank to correct for instrument and buffer artifacts. Peptides were injected at variable concentrations at 20 μL/min flow rate and binding to the HER2 receptor immobilized on the chip was monitored in real time. Each sensorgram consists of an association phase (first 240s), reflecting binding of the injected peptide to the receptor, followed by a dissociation phase (300s), during which the running buffer is passed over the chip and the bound peptide is being washed off the receptor surface.
(SPR reads the build-up and loss of mass on a sensor chip optically.)

For assay [2], the target named is T1, Recombinant purified HER2 receptor …. Briefly: Biacore SPR, immobilized HER2-Fc. The protocol: as §1
Assay [3] has as its target human HER2 receptor overexpressed on T6-17 cells (NIH3T3-derived) (human, UniProt P04626 23-1255). Briefly: cell-based or functional assay.
Assay [4] has as its target T1, Recombinant purified HER2 receptor …. The assay can be described thus: Biacore competition, AHNP preinjected 0-90 µM, then 1 nM rhumAb 4D5 (competitor) on immobilized HER2-Fc; initial rate of antibody binding. The protocol: as §1, with “Each sensorgram consists of an association phase (first 240s), reflecting binding of the injected peptide to the receptor, followed by a dissociation phase (300s), during which the running buffer is passed over the chip and the bound peptide is being washed off the receptor surface.” left out

Positions of bridges follow the written chain, without caps; N, C: chain ends. No end group written: not given here.

B1: AHNP analogue 5, FCDGFYACYMDVK-NH2 (peptide)
peptide: FCDGFYACYMDVK-NH2
modifications: disulfide 2-8 (inferred)
notes: Lys added as C-terminal residue; also called peptide 5
As for B1, in assay [1], the Kd amounted to 830 nM, the koff came out at 0.000512 s⁻¹ and the kon came out at 617 M⁻¹ s⁻¹.

B2: AHNP analogue 7, GFCDGFYACYMDV-OH (peptide)
peptide: GFCDGFYACYMDV-OH
modifications: disulfide 3-9 (inferred)
notes: Gly placed at the N-terminus before Phe1; also called peptide 7
Regarding B2, in assay [1], the Kd was found to be 730 nM, the off-rate constant (koff) was found to be 0.000808 s⁻¹ and the kon is 1110 M⁻¹ s⁻¹.

B3: AHNP (anti-HER2/neu peptide mimetic), peptide 1, FCDGFYACYMDV-NH2 (peptide)
peptide: FCDGFYACYMDV-NH2
modifications: disulfide 2-8
notes: Designed from the CDR-H3 loop of rhumAb 4D5; also called anti-HER2 peptide
As to B3, in assay [1], the Kd turned out to be 320 nM, the koff was 0.000453 s⁻¹ and the kon came to 1410 M⁻¹ s⁻¹. In addition, the “fold increase in binding affinity against peptide 2” value in assay [2] was greater than 2 fold. For the same molecule, in assay [3], the “% inhibition (inhibition of T6-17 cell proliferation in MTT assays, 1 µg/mL peptide)” value (“% inhibition” below) is 35.5%. Also, the IC50 in assay [4] amounted to 3400 nM.

B4: AHNP analogue 6, FCDGFYACYKDV-OH (peptide)
peptide: FCDGFYACYKDV-OH
modifications: disulfide 2-8 (inferred)
notes: Met of peptide 2 replaced by Lys; also called peptide 6
With B4, in assay [1], the Kd was 5700 nM, the koff worked out at 0.00125 s⁻¹ and the kon was 219 M⁻¹ s⁻¹. In addition, the “fold decrease in affinity (Lys substituted for Met)” value in assay [2] came out at 8.8 fold. The “% inhibition” value in assay [3] was determined as 8.4%.

B5: AHNP analogue 3, YCDGFYACYMDV-NH2 (peptide)
peptide: YCDGFYACYMDV-NH2
modifications: disulfide 2-8 (inferred)
notes: N-terminal Phe of AHNP replaced with Tyr; also called peptide 3
As to B5, in assay [1], the Kd worked out at 150 nM, the koff was determined as 0.000294 s⁻¹ and the kon is 1960 M⁻¹ s⁻¹. Besides, the “fold improvement in binding (Phe replaced with Tyr)” value in assay [2] was greater than 2 fold. Besides, the “% inhibition” value in assay [3] came to 59.6%.

B6: AHNP analogue 8, FCGDGFYACYMDV-OH (peptide)
peptide: FCGDGFYACYMDV-OH
modifications: disulfide 2-9 (inferred)
notes: First AHNP analogue designed; has one more turn Gly than peptide 2; also called peptide 8
Take B6: in assay [1], the equilibrium dissociation constant (Kd) is 760 nM, the koff came out at 0.000701 s⁻¹ and the kon was found to be 922 M⁻¹ s⁻¹. For the same molecule, the “% inhibition” value in assay [3] came to 18.4%.

With FCDGFYACYMDV-OH (disulfide 2-8 (inferred), also called peptide 2) [AHNP analogue 2, FCDGFYACYMDV-OH (cyclic)], in assay [1], the Kd is 650 nM, the koff was determined as 0.000643 s⁻¹ and the kon amounted to 990 M⁻¹ s⁻¹. For the same molecule, the “fold higher affinity than the linear analogue 9” value in assay [2] is greater than 5 fold. Also, the “% inhibition” value in assay [3] is 22.3%.

B7: AHNP analogue 9, FCDGFYACYMDV-OH (linear, not cyclized) (peptide)
peptide: FCDGFYACYMDV-OH
modifications: cysteine pairing not given here
notes: also called peptide 9; linear analogue 9
For B7, in assay [1], the dissociation constant (Kd) came out at 3560 nM, the koff was determined as 0.00106 s⁻¹ and the kon turned out to be 298 M⁻¹ s⁻¹. Also, the “% inhibition” value in assay [3] came to 12.8%.

Usually Kd stands for a measure of binding affinity in units of concentration. The koff is the rate constant with which the complex falls apart. As usually defined, the kon is the rate constant with which the complex forms. Broadly, the IC50 is the midpoint of a concentration-inhibition curve.
